Assay results published in the supplement of paper PMC12042874.
± gives the uncertainty stated by the source.

assay: amyloid nucleation score (Sup35N fusion, yeast selection) (log enrichment); library NNK1; higher = more nucleation; inactive = no reads after selection
How it was run: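 Random libraries were run with three technical output replicates. In each, psi-negative yeast expressing Sup35N fused to peptides of 20 random codons were induced 24 hours with 100 μM copper sulfate and grown 7 days at 30°C on medium lacking adenine and uracil, and input and output plasmid inserts were Illumina-sequenced. The nucleation score is the DiMSum log enrichment of output over input reads, centred on the mode score of non-aggregating sequences, and sequences under 100 input reads were excluded.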

Substance	amyloid nucleation score
VIGKMDEVGSIVEFDSGIRV	0.658 ± 0.47
YSVGFTCRMVTLSASWYWLW	0.136 ± 0.32
YIHGGVMCKDPAPFSYFASI	-0.114 ± 0.59
WVLAVRTSNLCRRGMLYKL	-0.662 ± 0.45
YFFVLEFIVCIVMTITSLSC	-0.988 ± 0.48
GPTRLDAEG	-0.54 ± 0.87
CAACSSQLYCEWFMNALLGM	-0.513 ± 0.44
YSYFWVAWF	0.329 ± 0.4
VMCAGQESESIRGGYSEVNG	1.17 ± 0.39
VFNWTHPWLSQH	-0.047 ± 0.78
LVGFSVSYKVSENFCSTL	inactive
NAQWKHETHIFCSAMFVTEC	0.878 ± 0.45
ISGGLTGKWVFVLGDWWVMF	-0.206 ± 0.74
LCAISHIE	-0.502 ± 0.28
FIIDYKTDKRSEFWL	0.215 ± 0.35
VDFDPNVLFKWTDMKRSRSR	1.66 ± 0.48
VVSVMLAFYTKDSFVVWLNL	1.02 ± 0.15
ISVKSW	-0.325 ± 0.98
DLCQEPIG	-0.379 ± 0.3
SSRFDSLFVNNIMIFWVSKF	5.015 ± 0.048
SCGWDLVCGMMAVHSSGIVL	0.975 ± 0.42
VWLGTEFFVSCLACMLVSVL	-1.05 ± 0.54
NPSFNPWNDHHYCTSGMCML	0.562 ± 0.81
TPYLDFI	1.12 ± 0.56
RYPSLLWIFDFNYLLYLRFQ	-0.451 ± 0.25

Substance	amyloid nucleation score
GIENLRTDV	1.34 ± 0.37
TLLIMLLYKSTILCVQPDLM	0.032 ± 0.6
GRVVAHLNRRHR	1.38 ± 0.43
VLSVSCVRYISGVRERWYVL	1.23 ± 0.6
EECAFYSSMK	inactive
VLWSCDAMWWVRIKSTYVWN	0.495 ± 1.2
PNMARHPFYEDMCFTVDVTN	-1 ± 0.44
TTLIILDTYLNMIVVGTLYW	0.11 ± 0.22
MEWDAYVMI	0.442 ± 0.84
GFNMLC	0.224 ± 0.5
LISFEHEFKRCHCALVTWT	-0.048 ± 0.3
ITLKCCMSTRNHMCHR	3.75 ± 0.066
VNNIVRSICGIKGEVRFLCG	0.094 ± 1.2
LYFQAFHYQQWCIWFYFYIL	1.42 ± 0.49
QKAAVEQGLSRFGEGVTP	0.886 ± 0.66
RSLFRECEKIVDRHSMSNFH	0.445 ± 0.4
KCIYVFSYIYTFLNMCWRGH	3.5 ± 0.1
PYYHHVGVGYAFYVICVRAF	inactive
EEFFMLRVDWIEEANQCKRE	0.221 ± 0.47
AIQYHNWGSEACLWHERESG	0.225 ± 0.26
LNLLYASWYYSFGVR	-0.194 ± 0.24
DVREITCLSHKRTRHQVHPV	0.07 ± 1.2
RNSDSNTVGNRSFWLLGIL	0.389 ± 0.3
WWSYQF	0.725 ± 0.39
HSVVLILCLAL	0.057 ± 1.2

Substance	amyloid nucleation score
DSEKGSVLYLVMRGMNCVSI	4.69 ± 0.052
NLVRLVRIARCSMRSSVGTL	1.23 ± 0.16
STYYVVRDFFLDSSTGTVYS	-0.031 ± 0.61
SRSGSLKCRGAQGFTCY	0.564 ± 0.52
GHWPQRCIMVVECYQRQAHK	0.115 ± 0.65
VNCISHGACMCRWFYDSGKK	0.847 ± 0.38
KDCDMIGDSVYGSKFVTREM	0.503 ± 0.34
LPIRASGNHL	0.495 ± 0.79
GVASNYPNHLVLNSR	-0.211 ± 0.34
ILENTVCSIFVSVVIANVGL	1.94 ± 0.53
TRFVVVVMIISQLRCLLCDM	0.61 ± 1
THCLDCVPMNRVDNRCETFS	0.028 ± 0.36
HKHRKPSLNRVPGVGW	-0.78 ± 0.43
ECRMYLLTLVARRSRNPDNC	1.03 ± 0.61
HEKVV	0.292 ± 0.32
LLSHQVTPSGRYSFSLCKSW	0.873 ± 0.84
NLALITWFESYCQTMRSAWI	-0.145 ± 0.26
GACHLGDDYFRSSVVVTKSA	0.232 ± 0.39
MGNIVTLHFSHVGHRYSKWV	inactive
SVTLIGFILDLRTGHILWYK	-0.423 ± 0.62
AHSCDGPCRPHVTAVKALVL	0.089 ± 0.48
PVGWGNTACSLRCTGHVSYV	-0.604 ± 1.7
NFFVSRLISQPHLGTYYAS	inactive
YPCCKICDYIKS	-0.018 ± 0.23
RRRCSSVGRDLMAGSDKRYE	0.663 ± 0.24

Substance	amyloid nucleation score
YINLDHCRMSSSTA	0.85 ± 0.65
DDVMSKVPCVTTYSVVLLMR	0.83 ± 0.78
SSRYFLFLAHTHWLCTMTCP	-0.064 ± 0.8
QYEALLPLTKKNRTNTWQRQ	inactive
SINVPPHSGHELH	1.12 ± 0.76
RLDISSYSLFGINQVWA	2.63 ± 0.17
AIRWYGMDDMPTRGYQWSPA	-0.128 ± 0.59
ANDKHLVLGWAQVVTQMDGR	0.731 ± 0.86
YSALVFRYGVISKGDLVTRR	0.123 ± 0.36
CLVPAQGCYYGYLLTLMVER	-0.264 ± 0.52
LRARMCYRAPLRFR	-0.257 ± 1.7
ANIYGWDDPYFEQL	0.045 ± 0.75
VSVKSNGWMSWWLSWQVPKH	-0.147 ± 0.63
SLNSPL	0.391 ± 0.85
NCNLSQWLIRQPKRAVSTHT	0.243 ± 0.33
LLSATFLLMSTCY	0.34 ± 0.29
RCDYVEWIWYPCYRRNGVCR	0.171 ± 0.39
MQWSYV	0.32 ± 0.37
GGPQLKVCSFGLFWWFIEVV	inactive
CRVPIRCRGDLLSLRAVRFR	1.88 ± 0.14
SYGNCVRCSLMYKGKHMLNT	0.022 ± 0.52
FPDYVDTTFRQIWECLWFFP	inactive
SDKAMHCGCVLH	-0.891 ± 0.56
YWPGLGFMFDNYSI	0.555 ± 0.71
SMFKGTIWRQHSLS	0.618 ± 0.85

Substance	amyloid nucleation score
GAQATFEVHCLERTVWVYR	-0.691 ± 1.4
FIRCVNSV	-0.745 ± 2.4
TYLQRCSIFRPSLTSMG	0.273 ± 0.45
FSPLCKPLNSWYNQVKYRRH	0.131 ± 0.84
AVVMTLIVYALGYT	1.27 ± 0.3
RQSRLAYGCVLVYVLTADFG	-0.025 ± 0.29
HLGSNFKISAGAINVRLSHR	4.76 ± 0.1
PSVTVYIYNLSSIFYGIRDL	6.71 ± 0.075
LAEWRLYLRRTVWYLRILIR	-0.066 ± 1
RSCSNRIIKCNLSHVMFY	4.45 ± 0.052
YYNVYTTYTASVWGTYRWNV	-1.45 ± 0.82
SRLRLGIRTDLG	0.218 ± 0.54
MRASTFNYSYELKINVVCYT	-0.918 ± 0.53
LCLTKNMCTSIVRVRALVCR	-0.161 ± 0.26
DFAYMSVLWIVVMLRGFLVK	0.639 ± 0.45
LLLSSLTDFHVVDRLIKQAW	-0.003 ± 0.41
SNCLDMTVTAW	inactive
VRMKPCSLLNLGTYPAQNVM	-0.888 ± 1.9
VLSSGESIRNTAINVEVEHQ	0.449 ± 0.38
SKYVYSF	1.2 ± 0.13
SSNSPCMPVRRTADNPSPYA	0.239 ± 0.51
HLLALFTSFVTITPW	-0.986 ± 0.88
KNYDGCHMSYVGSRGWITSL	0.215 ± 1.4
SHLNHEGFRLIQCLIWSLHW	0.33 ± 0.54
PCSFNA	-0.267 ± 0.72

Substance	amyloid nucleation score
PRYRASVYYKDTRVLLLF	0.512 ± 0.36
FRPSRHNAQPMFHSKPSRAF	-0.636 ± 1.1
EGRSWW	-0.691 ± 1.4
VSSYAIYEECNLPGKAGKPC	-0.213 ± 0.63
SNKTSKDGCEFQVVQLVQRV	-0.059 ± 0.33
FRYVDALHDRSSYIQIGKRI	-0.423 ± 1.5
FLEFWPSVTVYSRCFLVFGR	-1.06 ± 1.1
RLGAGCSPSLVLS	0.197 ± 0.56
TLDKDLDMGRP	0.625 ± 0.56
GSSLTPCFEWMIIRCVEEDG	1.05 ± 0.79
YADNSSTLMSDILFTIYRIG	1.06 ± 0.095
LLCYCVAELLDNTRRAT	0.328 ± 0.57
GEKCGSVPGHQLGTDILSRA	0.819 ± 0.67
VWSILCMCNRSHLWVKSSKR	0.988 ± 0.35
DSLWLRYVFMRTVLLMVHVR	inactive
ITRPGKWGRGD	0.782 ± 0.35
AQFSTKPQQRIP	1.51 ± 0.56
FYFRPNDQSWYVTRLFLSPA	0.491 ± 0.93
PGRIYGRSGCYRV	0.482 ± 0.69
MYNNTALRRSEYADCH	0.872 ± 0.8
YHRGIYLFSRSC	-0.906 ± 0.88
SHLMPGCEKFLHCVSFPDA	-0.45 ± 0.56
DTCYHINIGKTQSADQRDCT	0.219 ± 0.25
NGKVYVELKEWDLRVVGSLR	4.44 ± 0.095
AEAKN	-1.01 ± 0.9

Substance	amyloid nucleation score
DNTGQVRIW	-0.562 ± 0.62
WMFMNLVGVMFDGHGPGGSA	1.66 ± 0.28
FIWSVTYSGP	1.48 ± 0.72
GDQSM	0.262 ± 0.31
SFKWVVRVWRCRILWNSGVS	0.001 ± 0.78
IIGSEARLD	inactive
VSSFLLRSFRKCRPLCYIVR	3.89 ± 0.085
CDSYELSQTAQRNNSTLRQS	-0.359 ± 1.9
INYHMVNLNVLAMC	2.17 ± 0.46
LSPSSMN	inactive
TIMVVWCSGKDGSQVTWMQF	0.324 ± 0.34
FRLTGTLALKFVVELTVRR	2.79 ± 0.26
VDYSLSENSTVLLNIWDL	-0.008 ± 0.46
VPVYNMNFYAVLHILSFCLD	4.18 ± 0.057
GAVPDPKVVGMGFQMGAVNS	0.877 ± 0.7
FSRCPHQALSTECFPFFGS	-0.122 ± 1.4
FGSARGHSGY	1.52 ± 0.18
NVRYFLWGNAETIYL	0.769 ± 0.29
CFGCF	2.23 ± 0.17
RHVSPFNSS	-0.222 ± 0.31
SRSLPLHCMRHGVRRTGRMA	0.668 ± 0.57
